{"source": "patent US20080248502A1", "about": "(EISAI R AND D MANAGEMENT, published 2008)", "binders": {"B1": {"name": "mouse CARL (CAR ligand; ENSMUSG0000048534), full length, on cells (ligand)", "chain": "QGLPGLTVSSPQLRVHVGESVLMGCVVQRTEEKHVDRVDWLFSKDKDDASEYVLFYYSNLSVPTGRFQNRSHLVGDTFHNDGSLLLQDVQKADEGIYTCEIRLKNESMVMKKPVELWVLPEEPKDLRVRVGDTTQMRCSIQSTEEKRVTKVNWMFSSGSHTEEETVLSYDSNMRSGKFQSLGRFRNRVDLTGDISRNDGSIKLQTVKESDRGIYTCSIYVGKLESRKTIVLHVVQDEFQRTISPTPPTDKGQQGILNGNQLVIIVGIVCATFLLLPVLILIVKKAKWNKSSVSSMASVKSLENKEKINPEKHIYSSITTWETTERGISGESEGTYMTMNPVWPSSPKASSLVRSSVRSK", "notes": "also called CARL-expressing B300 cells; similar to AMICA (BC050133)"}, "B2": {"name": "CARL-Fc chimeric protein (mouse CARL) (Fc fusion)", "chain": "QGLPGLTVSSPQLRVHVGESVLMGCVVQRTEEKHVDRVDWLFSKDKDDASEYVLFYYSNLSVPTGRFQNRSHLVGDTFHNDGSLLLQDVQKADEGIYTCEIRLKNESMVMKKPVELWVLPEEPKDLRVRVGDTTQMRCSIQSTEEKRVTKVNWMFSSGSHTEEETVLSYDSNMRSGKFQSLGRFRNRVDLTGDISRNDGSIKLQTVKESDRGIYTCSIYVGKLESRKTIVLHVVQDEFQRTISPTPPTDKGQQGILNGNQL", "notes": "The making of CARL-Fc is described nowhere; used as culture supernatant; only its extracellular region is in the construct; also called CARL-Fc chimeric proteins; not shown: Fc part: species, isotype and any linker are not described"}, "B3": {"name": "full-length CARL (positions 21 to 379) with vector signal sequence and FLAG tag, expressed on B300 cells (ligand)", "chain": "QGLPGLTVSSPQLRVHVGESVLMGCVVQRTEEKHVDRVDWLFSKDKDDASEYVLFYYSNLSVPTGRFQNRSHLVGDTFHNDGSLLLQDVQKADEGIYTCEIRLKNESMVMKKPVELWVLPEEPKDLRVRVGDTTQMRCSIQSTEEKRVTKVNWMFSSGSHTEEETVLSYDSNMRSGKFQSLGRFRNRVDLTGDISRNDGSIKLQTVKESDRGIYTCSIYVGKLESRKTIVLHVVQDEFQRTISPTPPTDKGQQGILNGNQLVIIVGIVCATFLLLPVLILIVKKAKWNKSSVSSMASVKSLENKEKINPEKHIYSSITTWETTERGISGESEGTYMTMNPVWPSSPKASSLVRSSVRSK", "notes": "also called B300 cells expressing full-length CARL; not shown: FLAG tag from vector pMX ssFLAG MCS2.2 IRES Puro"}, "B4": {"name": "domain 2-lacking CARL (positions 21 to 139 and 255 to 379) with FLAG tag, expressed on B300 cells (ligand)", "chain": "QGLPGLTVSSPQLRVHVGESVLMGCVVQRTEEKHVDRVDWLFSKDKDDASEYVLFYYSNLSVPTGRFQNRSHLVGDTFHNDGSLLLQDVQKADEGIYTCEIRLKNESMVMKKPVELWVLQDEFQRTISPTPPTDKGQQGILNGNQLVIIVGIVCATFLLLPVLILIVKKAKWNKSSVSSMASVKSLENKEKINPEKHIYSSITTWETTERGISGESEGTYMTMNPVWPSSPKASSLVRSSVRSK", "notes": "On cells; also called B300 cells expressing CARL lacking domain 2; not shown: FLAG tag from vector pMX ssFLAG MCS2.2 IRES Puro"}, "B5": {"name": "human CARL (human AMICA), full length, expressed on B300 cells (ligand)", "chain": "LNDLNVSPPELTVHVGDSALMGCVFQSTEDKCIFKIDWTLSPGEHAKDEYVLYYYSNLSVPIGRFQNRVHLMGDILCNDGSLLLQDVQEADQGTYICEIRLKGESQVFKKAVVLHVLPEEPKELMVHVGGLIQMGCVFQSTEVKHVTKVEWIFSGRRAKEEIVFRYYHKLRMSVEYSQSWGHFQNRVNLVGDIFRNDGSIMLQGVRESDGGNYTCSIHLGNLVFKKTIVLHVSPEEPRTLVTPAALRPLVLGGNQLVIIVGIVCATILLLPVLILIVKKTCGNKSSVNSTVLVKNTKKTNPEIKEKPCHFERCEGEKHIYSPIIVREVIEEEEPSEKSEATYMTMHPVWPSLRSDRNNSLEKKSGGGMPKTQQAF", "notes": "also called human CARL-expressing B300 cells; B300 cells expressing human CARL"}, "B6": {"name": "human CAR, full length, expressed on B300 cells (receptor, UniProt P78310 20-365, looked up)", "chain": "LSITTPEEMIEKAKGETAYLPCKFTLSPEDQGPLDIEWLISPADNQKVDQVIILYSGDKIYDDYYPDLKGRVHFTSNDLKSGDASINVTNLQLSDIGTYQCKVKKAPGVANKKIHLVVLVKPSGARCYVDGSEEIGSDFKIKCEPKEGSLPLQYEWQKLSDSQKMPTSWLAEMTSSVISVKNASSEYSGTYSCTVRNRVGSDQCLLRLNVVPPSNKAGLIAGAIIGTLLALALIGLIIFCCRKKRREEKYEKEVHHDIREDVPPPKSRTSTARSYIGSNHSSLGSMSPSNMEGYSKTQYNQVPSEDFERTPQSPTLPPAKVAAPNLSRMGAIPVMIPAQSKDGSIV", "notes": "whole, on cells; also called human CAR-expressing B300 cells"}, "B7": {"name": "domain 1-lacking CARL (positions 21 to 29 and 140 to 379) with FLAG tag, expressed on B300 cells (ligand)", "chain": "QGLPGLTVSPEEPKDLRVRVGDTTQMRCSIQSTEEKRVTKVNWMFSSGSHTEEETVLSYDSNMRSGKFQSLGRFRNRVDLTGDISRNDGSIKLQTVKESDRGIYTCSIYVGKLESRKTIVLHVVQDEFQRTISPTPPTDKGQQGILNGNQLVIIVGIVCATFLLLPVLILIVKKAKWNKSSVSSMASVKSLENKEKINPEKHIYSSITTWETTERGISGESEGTYMTMNPVWPSSPKASSLVRSSVRSK", "notes": "On cells; also called B300 cells expressing CARL lacking domain 1; not shown: FLAG tag from vector pMX ssFLAG MCS2.2 IRES Puro"}}, "key": {"[1]": {"target": "T1, CAR-AP chimeric protein (extracellular region of mouse CAR linked with human secretory placental alkaline … (mouse; human, UniProt P97792 20-237; P05187 23-511)", "T1 construct": "Secreted from 293/EBNA-1 cells; also called CAR-AP chimeric proteins; immobilized CAR", "T1 sequence (P97792 other isoform, or with tags, fused parts or gaps mutant)": "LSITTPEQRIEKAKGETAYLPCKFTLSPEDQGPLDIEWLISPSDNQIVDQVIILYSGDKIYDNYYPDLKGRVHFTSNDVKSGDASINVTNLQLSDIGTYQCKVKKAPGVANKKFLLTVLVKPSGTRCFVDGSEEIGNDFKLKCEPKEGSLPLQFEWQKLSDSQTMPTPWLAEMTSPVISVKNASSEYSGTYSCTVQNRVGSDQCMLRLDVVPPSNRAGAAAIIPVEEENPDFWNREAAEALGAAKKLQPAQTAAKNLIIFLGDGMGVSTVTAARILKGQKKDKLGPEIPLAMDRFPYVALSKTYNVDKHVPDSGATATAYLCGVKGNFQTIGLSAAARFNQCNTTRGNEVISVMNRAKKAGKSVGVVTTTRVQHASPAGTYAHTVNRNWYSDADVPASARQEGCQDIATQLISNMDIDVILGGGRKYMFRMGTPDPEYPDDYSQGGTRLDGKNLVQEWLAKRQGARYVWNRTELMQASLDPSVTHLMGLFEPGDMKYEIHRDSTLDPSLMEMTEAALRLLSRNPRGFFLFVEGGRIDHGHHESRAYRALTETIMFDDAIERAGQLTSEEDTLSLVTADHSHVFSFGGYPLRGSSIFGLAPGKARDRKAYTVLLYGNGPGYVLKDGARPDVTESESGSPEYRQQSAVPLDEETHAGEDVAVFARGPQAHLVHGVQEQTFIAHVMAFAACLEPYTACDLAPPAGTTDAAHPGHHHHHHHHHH", "experiment": "adhesion of CARL-expressing B300 cells to immobilized AP chimeric proteins"}, "[2]": {"target": "T2, CARL-AP chimeric protein (extracellular region of mouse CARL linked with human secretory placental alkaline … (mouse; human, UniProt P05187 23-511)", "T2 construct": "also called CARL-AP proteins; chimeric protein of ENSMUSG0000048534 with AP", "experiment": "adhesion of B300/CARL cells to immobilized AP chimeric proteins (method of Example 4, proteins applied at 10 nM)", "procedure": "Cell adhesion experiments were carried out using AP chimeric proteins to identify molecules functioning as adhesion molecules that adhere to lymphocytes. First, 50 μl of 10 μg/ml anti-alkaline phosphatase antibody (Seradyn MIA1802) was added to 96 well ELISA plates (Nunc), and allowed to stand at 37° C. for 30 minutes to immobilize the antibody. After washing the plates with PBS, the non-specifically binding sites were blocked with BlockAce (Dainippon Pharmaceutical Co.). AP chimeric proteins were diluted to a final concentration of 10 nM, added to the wells, and allowed to stand at room temperature for 30 minutes to immobilize the proteins. Activated lymphocytes were suspended in cell adhesion buffer (RPMI 1640, 0.5% BSA, and 20 mM HEPES (pH 7.4)), fluorescently labeled with Calcein-AM (Dojin), then added to wells at 1×10⁵ cells/well, and incubated at 37° C. for one hour. The non-adherent cells were washed away. A cell lysis solution (10 mM TrisHCl (pH 8.0), 1% TritonX-100) was added, then adherent cells were quantified using Wallac ARVO SX 1420 MULTILABEL COUNTER (Perkin Elmer) and measuring at an excitation wavelength of 485 nm and detection wavelength of 535 nm. The degree of cell adhesion was represented as a percentage ratio of adherent cells to added cells. […]"}, "[3]": {"target": "T1, CAR-AP chimeric protein (extracellular …)", "experiment": "SPR (BIAcore X): CAR-AP captured by anti-alkaline phosphatase antibody on CM5 chip, CARL-Fc supernatant at 20, 6 or 0.6 nM", "procedure": "Then, a culture supernatant comprising CAR-AP chimeric protein or control AP chimeric protein diluted to 20 nM with HBS-EP buffer (BIAcore) was added to immobilize 500 RU of AP chimeric proteins onto the sensor chip. The protein-protein interactions were measured by adding culture supernatants comprising CARL-Fc chimeric proteins diluted to 20 nM, 6 nM, or 0.6 nM with HBS-EP buffer (BIAcore) at 20 μl/min for 210 seconds."}, "[4]": {"target": "T1, CAR-AP chimeric protein (extracellular …)", "experiment": "adhesion of transfected B300 cells to immobilized CAR-AP"}, "[5]": {"target": "T3, human CAR-AP chimeric protein (extracellular region of human CAR linked with human secretory placental … (human, UniProt P78310 20-237; P05187 23-511)", "T3 construct": "also called human CAR-AP chimeric proteins", "experiment": "cell surface binding of human CAR-AP to transfected B300 cells"}, "[6]": {"target": "T4, human CARL-AP chimeric protein (extracellular region of human CARL linked with human secretory placental … (human, UniProt P05187 23-511))", "T4 construct": "also called human CARL-AP chimeric proteins", "experiment": "adhesion of human CAR-expressing B300 cells to immobilized human CARL-AP"}}}
{"binder": "B1", "values": [{"measurement": "binding result", "setting": "[1]", "value": "binds"}, {"measurement": "binding result", "setting": "[2]", "value": "no binding"}]}
{"binder": "B2", "values": [{"measurement": "Kd", "setting": "[3]", "value": 4.8, "unit": "nM"}]}
{"binder": "B3", "values": [{"measurement": "binding result", "setting": "[4]", "value": "binds"}]}
{"binder": "B4", "values": [{"measurement": "binding result", "setting": "[4]", "value": "binds"}]}
{"binder": "B5", "values": [{"measurement": "binding result", "setting": "[5]", "value": "binds"}]}
{"binder": "B6", "values": [{"measurement": "binding result", "setting": "[6]", "value": "binds"}]}
{"binder": "B7", "values": [{"measurement": "binding result", "setting": "[4]", "value": "no binding"}]}
